Laboratory results as given in the supplement of paper PMC11811203.

B1: THAP1; numbered along this chain (parent)
chain: MVQSCSAYGCKNRYDKDKPVSFHKFPLTRPSLCKEWEAAVRRKNFKPTKYSSICSEHFTPDCFKRECNNKLLKENAVPTIFLCTEPHDKKEDLLEPQEQLPPPPLPPPVSQVDAAIGLLMPPLQTPVNLSVFCDHNYTVEDTMHQRKRIHQLEQQVEKLRKKLKTAQQRCRRQERQLEKLKEVVHFQKEKDDVSERGYVILPNDYFEIVEVPA

Variants of: B1
Test: THAP1 transcriptional activity (GFP+/GFP- enrichment relative to wild-type constructs) (ratio to WT); higher = more THAP1 activity (PSMB5 reporter activation)
Details: with PSMB5 promoter-GFP reporter
Protocol: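 Deep mutational scan of human THAP1. Site-saturation single amino acid variant library (residues 2-213) was expressed by lentivirus at MOI ~0.3 in THAP1-knockout HEK-293T cells carrying an endogenous PSMB5 promoter-GFP knock-in reporter. Five days post-transduction, BFP+ cells were FACS-sorted into GFP dim and GFP bright populations and variants were counted by Illumina sequencing. Activity is the GFP-bright/GFP-dim read fold change, mean of 2 replicates, divided by the mean fold change of wild-type (synonymous) constructs in the same screen pool; WT = 1.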
With MVQSCSAYGCKNRYDKDKVVSFHKFPLTRPSLCKEWEAAVRRKNFKPTKYSSICSEHFTPDCFKRECNNKLLKENAVPTIFLCTEPHDKKEDLLEPQEQLPPPPLPPPVSQVDAAIGLLMPPLQTPVNLSVFCDHNYTVEDTMHQRKRIHQLEQQVEKLRKKLKTAQQRCRRQERQLEKLKEVVHFQKEKDDVSERGYVILPNDYFEIVEVPA [P19V] the THAP1 transcriptional activity was 0.213. MVQSCSAYGCKNRYDKDKYVSFHKFPLTRPSLCKEWEAAVRRKNFKPTKYSSICSEHFTPDCFKRECNNKLLKENAVPTIFLCTEPHDKKEDLLEPQEQLPPPPLPPPVSQVDAAIGLLMPPLQTPVNLSVFCDHNYTVEDTMHQRKRIHQLEQQVEKLRKKLKTAQQRCRRQERQLEKLKEVVHFQKEKDDVSERGYVILPNDYFEIVEVPA [P19Y] was tested, and the THAP1 transcriptional activity was 0.197. With MVQSCSAYGCKNRYDKDKWVSFHKFPLTRPSLCKEWEAAVRRKNFKPTKYSSICSEHFTPDCFKRECNNKLLKENAVPTIFLCTEPHDKKEDLLEPQEQLPPPPLPPPVSQVDAAIGLLMPPLQTPVNLSVFCDHNYTVEDTMHQRKRIHQLEQQVEKLRKKLKTAQQRCRRQERQLEKLKEVVHFQKEKDDVSERGYVILPNDYFEIVEVPA [P19W] the THAP1 transcriptional activity was 0.162. Work on MVQSCSAYGCKNRYDKDKTVSFHKFPLTRPSLCKEWEAAVRRKNFKPTKYSSICSEHFTPDCFKRECNNKLLKENAVPTIFLCTEPHDKKEDLLEPQEQLPPPPLPPPVSQVDAAIGLLMPPLQTPVNLSVFCDHNYTVEDTMHQRKRIHQLEQQVEKLRKKLKTAQQRCRRQERQLEKLKEVVHFQKEKDDVSERGYVILPNDYFEIVEVPA [P19T] yielded a THAP1 transcriptional activity of 0.681. Work on MVQSCSAYGCKNRYDKDKPVDFHKFPLTRPSLCKEWEAAVRRKNFKPTKYSSICSEHFTPDCFKRECNNKLLKENAVPTIFLCTEPHDKKEDLLEPQEQLPPPPLPPPVSQVDAAIGLLMPPLQTPVNLSVFCDHNYTVEDTMHQRKRIHQLEQQVEKLRKKLKTAQQRCRRQERQLEKLKEVVHFQKEKDDVSERGYVILPNDYFEIVEVPA [S21D] yielded a THAP1 transcriptional activity of 0.0962. MVQSCSAYGCKNRYDKDKPVEFHKFPLTRPSLCKEWEAAVRRKNFKPTKYSSICSEHFTPDCFKRECNNKLLKENAVPTIFLCTEPHDKKEDLLEPQEQLPPPPLPPPVSQVDAAIGLLMPPLQTPVNLSVFCDHNYTVEDTMHQRKRIHQLEQQVEKLRKKLKTAQQRCRRQERQLEKLKEVVHFQKEKDDVSERGYVILPNDYFEIVEVPA [S21E] showed a THAP1 transcriptional activity of 0.0854. Variant MVQSCSAYGCKNRYDKDKPVFFHKFPLTRPSLCKEWEAAVRRKNFKPTKYSSICSEHFTPDCFKRECNNKLLKENAVPTIFLCTEPHDKKEDLLEPQEQLPPPPLPPPVSQVDAAIGLLMPPLQTPVNLSVFCDHNYTVEDTMHQRKRIHQLEQQVEKLRKKLKTAQQRCRRQERQLEKLKEVVHFQKEKDDVSERGYVILPNDYFEIVEVPA [S21F] has a THAP1 transcriptional activity of 0.11. With MVQSCSAYGCKNRYDKDKPVCFHKFPLTRPSLCKEWEAAVRRKNFKPTKYSSICSEHFTPDCFKRECNNKLLKENAVPTIFLCTEPHDKKEDLLEPQEQLPPPPLPPPVSQVDAAIGLLMPPLQTPVNLSVFCDHNYTVEDTMHQRKRIHQLEQQVEKLRKKLKTAQQRCRRQERQLEKLKEVVHFQKEKDDVSERGYVILPNDYFEIVEVPA [S21C] the THAP1 transcriptional activity was 0.0926. With MVQSCSAYGCKNRYDKDKPVAFHKFPLTRPSLCKEWEAAVRRKNFKPTKYSSICSEHFTPDCFKRECNNKLLKENAVPTIFLCTEPHDKKEDLLEPQEQLPPPPLPPPVSQVDAAIGLLMPPLQTPVNLSVFCDHNYTVEDTMHQRKRIHQLEQQVEKLRKKLKTAQQRCRRQERQLEKLKEVVHFQKEKDDVSERGYVILPNDYFEIVEVPA [S21A] the THAP1 transcriptional activity was 0.0835. MVQSCSAYGCKNRYDKDKPISFHKFPLTRPSLCKEWEAAVRRKNFKPTKYSSICSEHFTPDCFKRECNNKLLKENAVPTIFLCTEPHDKKEDLLEPQEQLPPPPLPPPVSQVDAAIGLLMPPLQTPVNLSVFCDHNYTVEDTMHQRKRIHQLEQQVEKLRKKLKTAQQRCRRQERQLEKLKEVVHFQKEKDDVSERGYVILPNDYFEIVEVPA [V20I] showed a THAP1 transcriptional activity of 1.71. MVQSCSAYGCKNRYDKDKPCSFHKFPLTRPSLCKEWEAAVRRKNFKPTKYSSICSEHFTPDCFKRECNNKLLKENAVPTIFLCTEPHDKKEDLLEPQEQLPPPPLPPPVSQVDAAIGLLMPPLQTPVNLSVFCDHNYTVEDTMHQRKRIHQLEQQVEKLRKKLKTAQQRCRRQERQLEKLKEVVHFQKEKDDVSERGYVILPNDYFEIVEVPA [V20C] showed a THAP1 transcriptional activity of 0.141. In the case of MVQSCSAYGCKNRYDKDKPASFHKFPLTRPSLCKEWEAAVRRKNFKPTKYSSICSEHFTPDCFKRECNNKLLKENAVPTIFLCTEPHDKKEDLLEPQEQLPPPPLPPPVSQVDAAIGLLMPPLQTPVNLSVFCDHNYTVEDTMHQRKRIHQLEQQVEKLRKKLKTAQQRCRRQERQLEKLKEVVHFQKEKDDVSERGYVILPNDYFEIVEVPA [V20A], the THAP1 transcriptional activity is reported as 0.135. In the case of MVQSCSAYGCKNRYDKDKPRSFHKFPLTRPSLCKEWEAAVRRKNFKPTKYSSICSEHFTPDCFKRECNNKLLKENAVPTIFLCTEPHDKKEDLLEPQEQLPPPPLPPPVSQVDAAIGLLMPPLQTPVNLSVFCDHNYTVEDTMHQRKRIHQLEQQVEKLRKKLKTAQQRCRRQERQLEKLKEVVHFQKEKDDVSERGYVILPNDYFEIVEVPA [V20R], the THAP1 transcriptional activity is reported as 0.261. Variant MVQSCSAYGCKNRYDKDKPMSFHKFPLTRPSLCKEWEAAVRRKNFKPTKYSSICSEHFTPDCFKRECNNKLLKENAVPTIFLCTEPHDKKEDLLEPQEQLPPPPLPPPVSQVDAAIGLLMPPLQTPVNLSVFCDHNYTVEDTMHQRKRIHQLEQQVEKLRKKLKTAQQRCRRQERQLEKLKEVVHFQKEKDDVSERGYVILPNDYFEIVEVPA [V20M] has a THAP1 transcriptional activity of 0.155. MVQSCSAYGCKNRYDKDKPGSFHKFPLTRPSLCKEWEAAVRRKNFKPTKYSSICSEHFTPDCFKRECNNKLLKENAVPTIFLCTEPHDKKEDLLEPQEQLPPPPLPPPVSQVDAAIGLLMPPLQTPVNLSVFCDHNYTVEDTMHQRKRIHQLEQQVEKLRKKLKTAQQRCRRQERQLEKLKEVVHFQKEKDDVSERGYVILPNDYFEIVEVPA [V20G] was tested, and the THAP1 transcriptional activity was 0.125. MVQSCSAYGCKNRYDKDKPFSFHKFPLTRPSLCKEWEAAVRRKNFKPTKYSSICSEHFTPDCFKRECNNKLLKENAVPTIFLCTEPHDKKEDLLEPQEQLPPPPLPPPVSQVDAAIGLLMPPLQTPVNLSVFCDHNYTVEDTMHQRKRIHQLEQQVEKLRKKLKTAQQRCRRQERQLEKLKEVVHFQKEKDDVSERGYVILPNDYFEIVEVPA [V20F] gave a THAP1 transcriptional activity of 0.204. In the case of MVQSCSAYGCKNRYDKDKPKSFHKFPLTRPSLCKEWEAAVRRKNFKPTKYSSICSEHFTPDCFKRECNNKLLKENAVPTIFLCTEPHDKKEDLLEPQEQLPPPPLPPPVSQVDAAIGLLMPPLQTPVNLSVFCDHNYTVEDTMHQRKRIHQLEQQVEKLRKKLKTAQQRCRRQERQLEKLKEVVHFQKEKDDVSERGYVILPNDYFEIVEVPA [V20K], the THAP1 transcriptional activity is reported as 0.0912. Variant MVQSCSAYGCKNRYDKDKPWSFHKFPLTRPSLCKEWEAAVRRKNFKPTKYSSICSEHFTPDCFKRECNNKLLKENAVPTIFLCTEPHDKKEDLLEPQEQLPPPPLPPPVSQVDAAIGLLMPPLQTPVNLSVFCDHNYTVEDTMHQRKRIHQLEQQVEKLRKKLKTAQQRCRRQERQLEKLKEVVHFQKEKDDVSERGYVILPNDYFEIVEVPA [V20W] has a THAP1 transcriptional activity of 0.141. With MVQSCSAYGCKNRYDKDKPTSFHKFPLTRPSLCKEWEAAVRRKNFKPTKYSSICSEHFTPDCFKRECNNKLLKENAVPTIFLCTEPHDKKEDLLEPQEQLPPPPLPPPVSQVDAAIGLLMPPLQTPVNLSVFCDHNYTVEDTMHQRKRIHQLEQQVEKLRKKLKTAQQRCRRQERQLEKLKEVVHFQKEKDDVSERGYVILPNDYFEIVEVPA [V20T] the THAP1 transcriptional activity was 0.58. Variant MVQSCSAYGCKNRYDKDKPHSFHKFPLTRPSLCKEWEAAVRRKNFKPTKYSSICSEHFTPDCFKRECNNKLLKENAVPTIFLCTEPHDKKEDLLEPQEQLPPPPLPPPVSQVDAAIGLLMPPLQTPVNLSVFCDHNYTVEDTMHQRKRIHQLEQQVEKLRKKLKTAQQRCRRQERQLEKLKEVVHFQKEKDDVSERGYVILPNDYFEIVEVPA [V20H] has a THAP1 transcriptional activity of 0.115. With MVQSCSAYGCKNRYDKDKPDSFHKFPLTRPSLCKEWEAAVRRKNFKPTKYSSICSEHFTPDCFKRECNNKLLKENAVPTIFLCTEPHDKKEDLLEPQEQLPPPPLPPPVSQVDAAIGLLMPPLQTPVNLSVFCDHNYTVEDTMHQRKRIHQLEQQVEKLRKKLKTAQQRCRRQERQLEKLKEVVHFQKEKDDVSERGYVILPNDYFEIVEVPA [V20D] the THAP1 transcriptional activity was 0.128. For MVQSCSAYGCKNRYDKDKPQSFHKFPLTRPSLCKEWEAAVRRKNFKPTKYSSICSEHFTPDCFKRECNNKLLKENAVPTIFLCTEPHDKKEDLLEPQEQLPPPPLPPPVSQVDAAIGLLMPPLQTPVNLSVFCDHNYTVEDTMHQRKRIHQLEQQVEKLRKKLKTAQQRCRRQERQLEKLKEVVHFQKEKDDVSERGYVILPNDYFEIVEVPA [V20Q], the THAP1 transcriptional activity was 0.139. MVQSCSAYGCKNRYDKDKPPSFHKFPLTRPSLCKEWEAAVRRKNFKPTKYSSICSEHFTPDCFKRECNNKLLKENAVPTIFLCTEPHDKKEDLLEPQEQLPPPPLPPPVSQVDAAIGLLMPPLQTPVNLSVFCDHNYTVEDTMHQRKRIHQLEQQVEKLRKKLKTAQQRCRRQERQLEKLKEVVHFQKEKDDVSERGYVILPNDYFEIVEVPA [V20P] gave a THAP1 transcriptional activity of 0.101. In the case of MVQSCSAYGCKNRYDKDKPSSFHKFPLTRPSLCKEWEAAVRRKNFKPTKYSSICSEHFTPDCFKRECNNKLLKENAVPTIFLCTEPHDKKEDLLEPQEQLPPPPLPPPVSQVDAAIGLLMPPLQTPVNLSVFCDHNYTVEDTMHQRKRIHQLEQQVEKLRKKLKTAQQRCRRQERQLEKLKEVVHFQKEKDDVSERGYVILPNDYFEIVEVPA [V20S], the THAP1 transcriptional activity is reported as 0.0781. Work on MVQSCSAYGCKNRYDKDKPNSFHKFPLTRPSLCKEWEAAVRRKNFKPTKYSSICSEHFTPDCFKRECNNKLLKENAVPTIFLCTEPHDKKEDLLEPQEQLPPPPLPPPVSQVDAAIGLLMPPLQTPVNLSVFCDHNYTVEDTMHQRKRIHQLEQQVEKLRKKLKTAQQRCRRQERQLEKLKEVVHFQKEKDDVSERGYVILPNDYFEIVEVPA [V20N] yielded a THAP1 transcriptional activity of 0.161. Variant MVQSCSAYGCKNRYDKDKPLSFHKFPLTRPSLCKEWEAAVRRKNFKPTKYSSICSEHFTPDCFKRECNNKLLKENAVPTIFLCTEPHDKKEDLLEPQEQLPPPPLPPPVSQVDAAIGLLMPPLQTPVNLSVFCDHNYTVEDTMHQRKRIHQLEQQVEKLRKKLKTAQQRCRRQERQLEKLKEVVHFQKEKDDVSERGYVILPNDYFEIVEVPA [V20L] has a THAP1 transcriptional activity of 0.297. With MVQSCSAYGCKNRYDKDKPYSFHKFPLTRPSLCKEWEAAVRRKNFKPTKYSSICSEHFTPDCFKRECNNKLLKENAVPTIFLCTEPHDKKEDLLEPQEQLPPPPLPPPVSQVDAAIGLLMPPLQTPVNLSVFCDHNYTVEDTMHQRKRIHQLEQQVEKLRKKLKTAQQRCRRQERQLEKLKEVVHFQKEKDDVSERGYVILPNDYFEIVEVPA [V20Y] the THAP1 transcriptional activity was 0.312. MVQSCSAYGCKNRYDKDKPESFHKFPLTRPSLCKEWEAAVRRKNFKPTKYSSICSEHFTPDCFKRECNNKLLKENAVPTIFLCTEPHDKKEDLLEPQEQLPPPPLPPPVSQVDAAIGLLMPPLQTPVNLSVFCDHNYTVEDTMHQRKRIHQLEQQVEKLRKKLKTAQQRCRRQERQLEKLKEVVHFQKEKDDVSERGYVILPNDYFEIVEVPA [V20E] gave a THAP1 transcriptional activity of 0.148.
